The numbers were not newly measured in paper PMC2871139, which cites them from elsewhere.

Data set [1] deals with A1 (UniProt Q07440).
Data set [2] concerns the target A1 (UniProt Q07440). This is another data set of the same source.
Data set [3] deals with A1 (UniProt Q07440). The source holds these as a separate data set.
For data set [4], the target named is A1 (UniProt Q07440). The source holds these as a separate data set.

pKd: −log10 of the molar value. Where two headings read alike, the source gives them in different places.

Chain of UniProt Q07440 (Q07440 whole entry): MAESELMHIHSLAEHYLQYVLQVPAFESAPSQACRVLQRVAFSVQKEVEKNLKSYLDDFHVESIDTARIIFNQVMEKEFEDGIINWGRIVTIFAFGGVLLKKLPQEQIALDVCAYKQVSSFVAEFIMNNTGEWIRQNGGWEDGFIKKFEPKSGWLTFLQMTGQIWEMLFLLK

With Bid BH3 (from UniProt P70444), in the data set with A1 [1], the negative logarithm of the Kd (pKd) (in general, the negative decadic logarithm of the Kd, by convention in mol/L) was > 8.52.

Bak BH3 (from UniProt O08734): the negative logarithm of the Kd (pKd) with A1 [2] was > 8.52.

As to Puma BH3 (from UniProt Q9BXH1), the pKd with A1 [3] is > 8.52.

Regarding Bmf BH3 (from UniProt Q91ZE9), in the data set with A1 [4], the negative logarithm of the Kd (pKd) was 6.74.
